The source of these data is patent US20220356229A1.

Numbering of substitutions follows the chain as printed. Several values for one entry are separate records, joined by “and”; a condition that tells them apart may be missing. Equal values may be shown once.

To fix the notation:
B1: anti-SARS-CoV-2 antibody 304 (antibody, V domains shown)
VH: EVQLLESGGGLVQPGGSLRLSCAASGFTFSTYAMSWVRQAPGKGLEWVSAISGSGGSTYYADSVKGRFTISRDNSKNTLYLQMNSLRAEDTAVYYCASGYSPDYWGQGTLVTVSS
VL: AIQMTQSPSSLSASVGDRVTITCRASQGIRNDLGWYQQKPGKAPKLLIYAASSLQSGVPSRFSGSGSGTDFTLTISSLQPEDFATYYCLQDYNYPRTFGQGTKVEIK
B2: anti-SARS-CoV-2 antibody 315 (antibody, V domains shown)
VH: QVQLVQSGSELKKPGASVKLSCQASGYSFTNHAMNWVRQAPGQGLEWMGWINTNTGNPTYAQGFTGRFVFSLDTSVSTTYLHISSLKAEDTAVYYCARASARPGVATNLDFWGQGTLVVVSS
VL: DIQMTQSPSSLSASVGDRVTITCRASQNIDNYLNWYQQKPGKAPKLLIYAASRLHSGVPSRFSGSGSGTDFTLIISSLQPEDLATYYCQQSYSNPLTFGPGTKVDIR
B3: anti-SARS-CoV-2 antibody 318 (antibody, V domains shown)
VH: QVQLVESGGGVVPPGRSLSLPCAASGFSFSAYAMHWLRQAPGKGLEWVAVISYDGTVKYVADSVRGRFTISRDNSNNTLYLQMTSLRSDDTAVYYCARDLGALAAAPTVYFVHWGQGTLVTVSS
VL: SYVLTQPPSVSVAPGKTATITCAGEDIGRKSVHWYQQKPGQAPVLVIFYYSDRPSGIPDRFSGSVSGNTATLTIGRVEAGDEADYFCQVWDRTTNHVIFGGGTKVTVL
B4: anti-SARS-CoV-2 antibody 316 (antibody, V domains shown)
VH: QVHLVESGGGVVQPGRSLRLSCAASGFTLTAYAMHWVRQAPGKRLEWVALISYDGSVKKYADSVKGRITVSGDTSTNTLHLQMNSLRADDTAVYYCVRGGVSGPNSFDLWGQGTMVTVSS
VL: DVVMTQSPLSLPVTLGQPASMSCRSSQSLEYSDGNTYVNWFHQRPGQSPRRLIYKVSYRDSGVPDRFSGSGSGTDFTLQISRVEAEDVGIYYCMQGTHWPVTFGQGTKVEIK
B5: anti-SARS-CoV-2 antibody 319 (antibody, V domains shown)
VH: QVQLVESGGGVVQPGRSLRLSCAASGFNLSNYAMHWVRQASGKGLEWVSLISYDGSIKYYTDSVKGRFTVSGDNSKNTLFLQMNSLRPDDSALYYCVRGGVSGPNSFDMWGQGTTVTVSS
VL: B4 VL with M21I, E30V, H42Q, K55Q, Y58I, D60A, T77A, Q79K, I90V
B6: anti-SARS-CoV-2 antibody 311 (antibody, V domains shown)
VH: QVQLQESGPGLVKPSETLSLTCTVSGYSISSGYYWGWIRQPPGKGLEWIGSIYHSGSTYYNPSLKSRVTISVDTSKNQFSLKLSSVTAADTAVYYCAREETLGSSWYESYIDYWGQGTLVTVSS
VL: SYVLTQPPSVSVAPGKTARITCGGNNIGSKSVHWYQQKPGQAPVLVIYYDSDRPSGIPERFSGSNSGNTATLTISRVEAGDEADYYCQVWDSSSDHPRVFGGGTKLTVL
B7: antibody 521 (antibody, V domains shown)
VH: QVQLVESGGGVVQPGRSLRLSCAASGFTFSSYGMHWVRQAPGKGLEWVAVIWYDGSNKYYADSVKGRFTISRDNSKNTLYLQMNSLRAEDTAVYYCAREGNDYGDYGEWELLGYFDYWGQGTLVTVSS
VL: SYELTQPPSVSVSPGQTARITCSGDALPKKYAYWYQQKSGQAPVLVIYEDSKRPSGIPERFSGSSSGTMATLTISGAQVEDEADYYCYSTDSSGNHRRVFGGGTKLTVL
B8: antibody 322 (antibody, V domains shown)
VH: EVQLVESGGGLVQPGGSLRLSCAASGFTFSSYWMSWVRQAPGKGLEWVANIKQDGSEKYYVDSVKGRFTISRDNAKNSLYLQMNSLRAEDTAVYYCARDEDVAAALDYWGQGTLVTVSS
VL: SYVLTQPPSVSVAPGKTARITCGGNNIGSKSVHWYQQKPGQAPVLVIYYDSDRPSGIPERFSGSNSGNTATLTISRVEAGDEADYYCQVWDSSSDHPERVFGGGTKLTVL
B9: antibody 325 (antibody, V domains shown)
VH: QVQLQESGPGLVKPSQTLSLTCTVSGGSISGGGYYWSWIRQHPGKGLEWIGYIYYSGSTYYNPSLQSRVTISVDTSKNQFSLKLSSVTAADTAVYYCARVGTSSVWYFDYWGQGTLVTVSS
VL: QSALTQPRSVSGSPGQSVTISCTGTSSDVGGYNYVSWYQQHPGKAPKLMIYDVTKRPSGVPDRFSGSKSGNTASLTISGLQAEDEADYYCSSYAGSWVFGGGTKLTVL
B10: antibody 493 (antibody, V domains shown)
VH: EVQLVESGGGLIQPGRSLRLSCAASGFTVSITYMSWVRQAPGKGLEWVSLIYSGGSSYYADSVKGRFTISRDNSKNTLYLQMNSLRAEDTAVYYCATTMVRGVIISYYYGMDVWGQGTTVTVSS
VL: QSALTQPASVSGSPGQSITISCTGTSSDVGGYNYVSWYQQHPGKAPKLMIYEVSNRPSGVSNRFSGSKSGNTASLTISGLQAEDEADYYCSSYTSSSTLVFGGGTKLTVL
B11: antibody 362 (antibody, V domains shown)
VH: B5 VH with I57V
VL: B4 VL with S20T, M21I, E30V, H42Q, K55Q, Y58I, D60A, T77A, Q79K, I90V
B12: antibody 396 (antibody, V domains shown)
VH: QVQLQQWGAGLLKPSETLSLTCAVYGGSFSGYYWSWIRQPPGKGLEWIGEIIHSGSTNYNPSLKSRVTISVDTSKNQFSLKLSSVTAADTAVYYSARRTGLLWFREGSYYFDYWGQGTLVTVSS
VL: B1 VL with A1D, L46R, D70E, D91H, Y92N, N93S, R96L, Q100G
B13: antibody 452 (antibody, V domains shown)
VH: QVQLVESGGGLVKPGGSLRLSCAASGFTFSDYYLSWIRQAPGKGLEWVSYISSSGSNIYYADSVKGRFTISRDNAKNSLYLQMNSLRADDTAVFYCARAGRYCSGGSCRVEYFQHWGQGTLVTVSS
VL: SYELTQPPSVSVSPGQTARITCSGDALPKQYAYWYQQKPGQAPVLVIYKDNERPSGIPERFSGSSSGTTATLTISGVQAEDEADYYCQSADSSGTVVFGGGTKLTVL
B14: antibody 315 (antibody, V domains shown)
VH: B2 VH
VL: B2 VL
B15: antibody 416 (antibody, V domains shown)
VH: EVQLVESGGGLVQPGRSLRLSCAASGFTFDDYAMHWVRQAPGKGLEWVSGISWNSGSIGYADSVKGRFTISRDNAKNSLYLQMNSLRAEDTALYYCAKDLAWLSGGMDVWGQGTTVTVSS
VL: not shown
B16: antibody 392 (antibody, V domains shown)
VH: QVQLQESGPGLVKPSGTLSLTCAVSGGSISSSNWWSWVRQPPGKGLEWIGEIYHSGSTNYNPSLKSRVTISVDKSKNQFSLKLSSVTAADTAVYYCARGWRATLYGMDVWGQGTTVTVSS
VL: B10 VL with G31S, Y34L, N55K, S91C, T94A, S95G, L99W
B17: antibody 390 (antibody, V domains shown)
VH: B10 VH with R16G, I31S, T32N, L50I, S57T, T90S, Y94S, V103L
VL: B10 VL
B18: antibody 413 (antibody, V domains shown)
VH: EVQLVESGGGLIQPGGSLRLSCAASGFTVSGNYMNWVRQAPGKGLEWVSVIYSGGSTYYADSVKGRFTISRANSKNTLYLQMNSLRAEDTAVYYCASTSLVRGLIILYYYGMDVWGQGTTVTVSS
VL: B10 VL
B19: antibody 337 (antibody, V domains shown)
VH: QVQLVESGGGVVQPGRSLRLSCAASGFTFSSYGMHWVRQAPGKGLEWVAIIWYDGSNKYYADSVKGRFTISRDNSKNTLYLQMNSLRAEDTAVYYCAKDTGGYCSGGSCYPESYFDYWGQGTLVTVSS
VL: B6 VL with S75N, S92G, P97L, R98Y, G102T, L106V
B20: antibody 259 (antibody, V domains shown)
VH: EVQLVQSGAEVKKPGATVKISCKVSGYTFTDYYMHWVQQAPGKGLEWMGLVDPEDGETIYAEKFQGRVTITADTSTDTAYMELSSLRSEDTAVYYCATDLLSWKLYCSGGSCPQMDVWGQGTTVTVSS
VL: B1 VL with A1D, L46R, D70E, D91H, Y92N, N93S, R96Q, V104L

The first experiment has as its target full length Spike of WIV1 (WIV1).
Settings: not given
Consider B1, for which the fold over isotype control (median fluorescence) (fold over isotype) was 1.01 and 1.04. Same read-out and setting: with B2 the figure was 1.09. Take B3: the fold over isotype control (median fluorescence) (fold over isotype) was 291 and 166. On the same count and under the same terms, with B4 the figure was 93.8. Turning to B5, the fold over isotype control (median fluorescence) (fold over isotype) turned out to be 96.2. The same measure, in the same setting: with B6 the figure was 1.11 and 1.14.

The target of the next experiment is T1, SARS-CoV-2 Spike (S) protein, wild type, full length (SARS-CoV-2), P0DTC2. As to conditions: remark: other sources report otherwise.
Consider B7, for which the median fluorescence, fold over isotype control (fold over isotype) was 0.86.

As to B8, the fold over isotype (median fluorescence intensity) (fold over isotype) amounted to 1.65. On the same count and under the same terms, with B9 the figure was 1.08. Regarding B10, the median fluorescence, fold over isotype control (fold over isotype) was 1.1.

On to B11, for which the fold over isotype (median fluorescence intensity) (fold over isotype) worked out at 9.45.

In a further experiment the target is SARS-CoV-2 full length Spike protein, wild type (SARS-CoV-2), P0DTC2. As to conditions: remark: other sources report otherwise.
B12 gave a fold over isotype control (median fluorescence) (fold over isotype) of 553. On to B13, for which the median fluorescence fold over isotype (fold over isotype control) stood at 854.

In turn, B14 had a bead binding signal (fold over isotype) (fold over isotype) of 592. B15 registered a median fluorescence fold over isotype (fold over isotype control) of 110. Molecule B16 had a fold over isotype control (median fluorescence) (fold over isotype) of 509. Same read-out and setting: with B17 the figure was 637 and 341 and 318. Turning to B18, the median fluorescence fold over isotype (fold over isotype control) is 969 and 367 and 416. Molecule B11 came in with a bead binding signal (fold over isotype) (fold over isotype) of 503.

The molecule B19 yielded a bead binding signal (fold over isotype) (fold over isotype) of 756.

The target in the next experiment is T1, SARS-CoV-2 Spike (S) protein, wild …. As to conditions: remark: other sources report otherwise. The source holds these as a separate data set.
Consider B20, for which the bead binding signal (fold over isotype) (fold over isotype) was 275.
